Source: paper PMC3806657 (Molecular Biology of the Cell, 2013)

B1: GST-Rho4 (enzyme)
chain: MSAFKKSGSKSETSKKLVVVGDGGCGKTCLLIVFSSGTFPERYVPTVFENYITDITYGPNSKVIELALWDTAGQEEYDRLRPLSYPNSNVILLCFSIDCPASLNNVTEKWYPEVQHFCPRTPIVLVGLKADLRKDRNATEVLRTQGLTPVTYQQAQSVALSMNAPYVECSAKENTGVNEVFQLAVGLTIKKSFSFSKKSCVIL
B2: GST-Rho5 (enzyme)
chain: MTTELRRKLVIVGDGACGKTCLLIVFSKGTFPEVYVPTVFENYVADVEVDGRHIELALWDTAGQEDYDRLRPLSYPDSHVVLICFSVDAPESLDNVQEKWISEVLHFCSNLPILLVGCKVDLRNDPKTIEELSKTSQKPITFEEGQVVAQKIGAYKYLECSAKLNEGVNEVFETAARASMLKFKPASVPKTKKKKHCILL
B3: GST-Rho1 (enzyme)
chain: MATELRRKLVIVGDGACGKTCLLIVFSKGTFPEVYVPTVFENYVADVEVDGRHVELALWDTAGQEDYDRLRPLSYPDSHVILICFAVDSPDSLDNVQEKWISEVLHFCSSLPILLVACKADLRNDPKIIEELSKTNQHPVTTEEGQAVAQKIGAYKYLECSAKTNEGVREVFESATRAAMLKHKPKVKPSSGTKKKKRCILL

Target: T1, 6His-tagged GEF domain of Gef2 (aa 211-600) (S. pombe, UniProt Q09733 211-600)
T1 sequence: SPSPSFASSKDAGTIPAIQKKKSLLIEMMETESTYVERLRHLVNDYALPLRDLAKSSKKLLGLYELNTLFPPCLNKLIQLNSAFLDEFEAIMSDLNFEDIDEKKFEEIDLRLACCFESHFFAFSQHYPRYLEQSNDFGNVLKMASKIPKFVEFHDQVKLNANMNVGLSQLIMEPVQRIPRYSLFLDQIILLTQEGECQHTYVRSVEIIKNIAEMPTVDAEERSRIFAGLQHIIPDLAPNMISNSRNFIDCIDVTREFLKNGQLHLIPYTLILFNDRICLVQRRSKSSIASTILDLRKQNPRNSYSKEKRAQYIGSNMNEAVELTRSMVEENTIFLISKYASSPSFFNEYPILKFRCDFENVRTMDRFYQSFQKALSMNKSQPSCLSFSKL
Test: pull-down

Binder | binding result
B1 | binds
B2 | binds
B3 | binds
